The values that follow come from the DeepSol protein solubility set.

The data set is described as follows: soluble on expression in E. coli; label from the status in PepcDB or PDB records.
“MSLSKIKEIRTKVYQWNGKTVPPQNNFCTNASDLLYEKSDAMGSFRFHEWLICEVETNDGHIGIGNAALAPQLVKNTIDTYLKPLVVGEDPFDYAYIWEKMYRKTLNWGRRGLGMVAISAIDIAIWDVLGKITNKPVFKLLGGRTKEKIPVYASKLYAQPLKQLQEEAEKYKNEGFKMFKSRMGWGPKDGSEGMKKNLQLLEAVREVIGEDTDLMVDCYMGWNLDYTKRMLPKMAKFNLRWLEEPVHADDIHGYAELNNMNIIPISGGEHEFNLFGFKQLLELNAVSYIQYDNNRVGGFTVAQKINALAEAYQIPVVPHAGQMHNYHLTMSNFNCPISEFFPVHEVEVGNELFYYIFEGDPAPVDGMIDLDDNTPGLGLKVTDKYKSDFKIIEEGHHHHHH”: the “soluble on expression in E. coli” value is given as “soluble”.

Turning to “MKKEEAKDIPIGGEIAVRQTGVPYGWLYRRTEPGYLLANGIALLECERDSAGRYKGGAGLDGMYLQTGRLYVPVLAGDGNVRAFQEVIPENYLAAAEMSVEGNYNQIDGIINNEPPKPSVLDALNQCREDAAKGRDAPENPPRGQEVER”, the “soluble on expression in E. coli” value is “not soluble”.

With “MGSDKIHHHHHHMYSHPTAIQTMSDGTIKQVNPFSGTEVWTVPGRGHRPLSTSQGNITPITPSDHSNTCAFCSDRYLDTPPEKARIVRDDDGWTILRGVLPDRLHDSVPAFRRVSNLFEIVSYDYWRNNYGFSMDLETTDWMQSYISTEKGREHVLATVRTKLQAAGIQDMPDDATLLPQGEAFFGGGHDLIIGQRHFVPDATQSDQLASAGTLSPDEHFAFIFFTVDALREAYQRNRYAPYVAVFQNWLKPAGASFDHLHKQLVAIDERGVHGETEIAKLRNYPNMYNEWAVDYAGQRNLIIAENDHAVCFAGFGHRYPTLEVFSRSATPEPWLQTNEEIKAMSDLIHACHAAAGPHVPCNEEWHHKPIDLDIAMPWRVMIKWRVSTLAGFEGSTKVYLNTLSPWDVRDRVVPRLYELRDSGAIDGSIRIATECSVRRNSLLYNKNLNM”, the “soluble on expression in E. coli” value is recorded as “not soluble”.

Consider “MSLKSDEVFAKIAKRLESIDPANRQVEHVYKFRITQGGKVVKNWVMDLKNVKLVESDDAAEATLTMEDDIMFAIGTGALPAKEAMAQDKMEVDGQVELIFLLEPFIASLK”, for which the “soluble on expression in E. coli” value is given as “soluble”.

On to “MGSDKIHHHHHHMINSYLVQQIKGNFLYKPTLEQEKAVKFLADFLFSRQSDSVFLLKGYAGTGKTSLIGALVKTLDQLQQKCVLLAPTGRAAKVFSHYAQHPAYTIHKKIYRQRNFSNDLDNFSLDDNLHQHTLFIVDEASMIANDGLAGAVFGTGRLLDDLIQYVYAGTGCRLMLIGDTAQLPPVGEEESPALSADKLRGYGMEVYEAQLTEVVRQMHDSGILWNATELRRYISEENFLTLPSVRVEGFPDIRMVSGSELIEVINDCYGQAGMDETIVVCRSNKRANIYNKGIRNTILFREDELNSGDLLMVAKNNYFWTEGCKEIDFIANGDIAVVRRVRRVREAYGFRFADVVLAFPDYDGMELEVKLLLDTLHTETPALPKELNDKLFYSVLEDYADITVKRERMKKMKADPHYNALQVKYAYAVTCHKAQGGQWKRVFLDQGYMTEDMLTPDYFRWLYTAFTRATEILYLVNWPKEQTE”, for which the “soluble on expression in E. coli” value is reported as “not soluble”.

As to “MGSDKIHHHHHHMKITNFEQTGLCEIEGILSIENTENIEVSELREILKCANVSFVLEGINRLQSTLICELKASYVQQSQRYVTLKENSFDLPDLRHEDELKAKELLRKAFELYEEMSRLKEGQFKGRPKAENYLYGIPIEDARYILPLACKTNISMAMNGEKLIDFFYLLNDRHYSEIFSDLKKLVLSKLPEKLSLFLSKLKSNYNRKLIENFYKSAFDKISECDNIVLLNSFEDLDLKVGLGAITSTHDKTPSEVMELWGDNATEKAKGVSERVLGYGHESIAEQARTTFGMMCSMVTYHQQIRHRLSENHREALFNIIQDEKREVVVPSTVKESEFYNRFVELTHEFKKFRKYVLKEYGEEKSLNFLLNCDRIKLVISTNARIDCQMLADRICFNAQWEIRELSTKKLEKLRKLSQVLYVKALPSCVFGKCKEGKFTCGKQMIMKNKFA”, the “soluble on expression in E. coli” value is “not soluble”.

Regarding “MNKLDTSQLKIASMGGGHGLFQTLRAVRQLNPASIDAIVTVADDGGSSGRIRRELGQIPPGDLRMALAALAPFDDEGLQWETLLQHRFGGHGALAGHAVGNLIIAGLCDTLGSEIAALDAVAKVIKAEGRVLPACAEPLEIAAEVSGLDDDPRIMREVIGQVAVASTPGTVRRVRLIPERPEATEESVEAIENADLVTLGPGSWFSSVIPHVLVPGIPTALATTKALRVVVLNLSPEPGETAGFTAERHIHILSQHAQTLRADVILVDEGLIPHKGERVHLERAAAVLGAQISYHDLSETDPSGRRIHRHDPAKLAEALRLQLLEHHHHHH”, the “soluble on expression in E. coli” value is “soluble”.

As for “MELSSLTAVSPVDGRYGDKVSALRGIFSEYGLLKFRVQVEVRWLQKLAAHAAIKEVPAFAADAIGYLDAIVANFSEEDAARIKTIERTTNHDVKAVEYFLKEKVAEIPELHAVSEFIHFACTSEDINNLSHALMLKTARDEVILPYWRQLIDGIKDLAVQYRDIPLLSRTHGQPATPSTIGKEMANVAYRMERQHRQLNQVEILGKINGAVGNYNAHIAAYPEVDWHQFSEEFVTSLGIQWNPYTTQIEPHDYIAELFDCVARFNTILIDFDRDVWGYIALNHFKQKTIAGEIGSSTMPHKVNPIDFENSEGNLGLSNAVLQHLASKLPVSRWQRDLTDSTVLRNLGVGIGYALIAYQSTLKGVSKLEVNRDHLLDELDHNWEVLAEPIQTVMRRYGIEKPYEKLKELTRGKRVDAEGMKQFIDGLALPEEEKARLKAMTPANYIGRAITMVDELK”, the “soluble on expression in E. coli” value is listed as “not soluble”.

As for “MAIVPRPITKFKRACLRIKLARCQKTPLSNFARSDLRSFSVFRFNLSVLQLVSSKIVKLDIMKQAAITSALTQNKMDPINGNLTSTAPVEPLSLTAAEQVGGAFCHQFYITVSENRKAITKFYGHESKFYLDDQVVTGSQEIVKLYNHLPETTHFKIQSIKGYPTPHKQGVIINVIGTVNLRPFLQSFLLGQQGQKKYYVESDAFQYIDKFFVANTEKEKTTSSTGHNGHASGANGKDSKSSKTEQPKEQSKPAPPKQQTPKKAEDRIVKQDTPKSVEKEVAKTPQKPQLAQQPPQQRAPVPEPVQEQPKVQKTWANLVGGGGKSQPPQQQSYGQGQQIHQQTQMHHMQPSMHQQQQGSHAPLYQQQRQSHPANELRQAQESSDANLNERKIYLGGITREIVPSNTAQAESEIKQVFYKYGEIEEVRMPRKVLDSPNDTSKHAFAFITMRNKAGVKAIFEAATKDEQGVWKLPLKLDAFGFDGHAQISEQRDQPQGGGFRGGRGGFQPRGGQFFRRGGSGGAPRGGMRSGFQNAGQN”, the “soluble on expression in E. coli” value is “not soluble”.

For “MSLTTSHFIPFPREMVWDWHTRKGAVARLTPPFIPLNPITQAERLADGTTIFSLPAGLKWVARHDLSGFLNGSRFTDVCLTAPVKALANWRHVHNFVDQDGGTLITDSVSTRLPASTLTGMFAYRQTQLIEDLKFLSRTSTLFDGSPLTVAITGSRGLVGRALTAQLQTGGHEVIQLVRKEPKPGKRFWDPLNPASDLLDGADVLVHLAGEPIFGRFNDSHKEAIRESRVLPTKFLAELVAESTQCTTMISASAVGFYGHDRGDEILTEESESGDDFLAEVCRDWEHATAPASDAGKRVAFIRTGVALSGRGGMLPLLKTLFSTGLGGKFGDGTSWFSWIAIDDLTDIYYRAIVDAQISGPINAVAPNPVSNADMTKILATSMHRPAFIQIPSLGPKILLGSQGAEELALASQRTAPAALENLSHTFRYTDIGAAIAHELGYEQLADFAQQQEIEAERKQERAELKAAKKIAKKAPVLEESPTNLEDPEEVEQSILSSILNFRRKRNDLEHHHHHH”, the “soluble on expression in E. coli” value was “soluble”.

For “MGSDKIHHHHHHMTILSDVKALGQQIWLDNLSRSLVQSGELAQMLKQGVCGVTSNPAIFQKAFAGDALYADEVAALKRQNLSPKQRYETMAVADVRAACDVCLAEHESTGGKTGFVSLEVSPELAKDAQGTVEEARRLHAAIARKNAMIKVPATDAGIDALETLVSDGISVNLTLLFSRAQTLKAYAAYARGIAKRLAAGQSVAHIQVVASFFISRVDSALDATLPDRLKGKTAIALAKAAYQDWEQYFTAPEFAALEAQGANRVQLLWASTGVKNPAYPDTLYVDSLIGVHTVNTVPDATLKAFIDHGTAKATLTESADEARARLAEIAALGIDVETLAARLQEDGLKQFEEAFEKLLAPLV”, the “soluble on expression in E. coli” value is reported as “not soluble”.

Take “MDYKFPKDFMFGTSTASYQIEGGWNEDGKGENIWDRLVHTSPEVIKDGTNGDIACDSYHKYKEDVAIIKDLNLKFYRFSISWARIAPSGVMNSLEPKGIAYYNNLINELIKNDIIPLVTMYHWDLPQYLQDLGGWVNPIMSDYFKEYARVLFTYFGDRVKWWITFNEPIAVCKGYSIKAYAPNLNLKTTGHYLAGHTQLIAHGKAYRLYEEMFKPTQNGKISISISGVFFMPKNAESDDDIETAERANQFERGWFGHPVYKGDYPPIMKKWVDQKSKEEGLPWSKLPKFTKDEIKLLKGTADFYALNHYSSRLVTFGSDPNPNFNPDASYVTSVDEAWLKPNETPYIIPVPEGLRKLLIWLKNEYGNPQLLITENGYGDDGQLDDFEKISYLKNYLNATLQAMYEDKCNVIGYTVWSLLDNFEWFYGYSIHFGLVKIDFNDPQRTRTKRESYTYFKNVVSTGKP”: the “soluble on expression in E. coli” value is on record as “soluble”.

As to “GSKKRQRFVDKNGRCNVQHGNLGSERAETLMFSEHAVISMRDGKLTLMFRVGNLRNSHMVEAQIRCKLLKSRQTPEGEFLPLDQLELDVGFSTGADQLFLVSPLTICHVIDAKSPFYDLSQRSMQTEQFEVVVILEGIVETTGMTCQARTSYTEDEVLWGHRFFPVISLEEGFFKVDYSQFHATFEVPTPPYSVKEQEEMLLMSSPL”, the “soluble on expression in E. coli” value is recorded as “soluble”.

For the sequence “MGSDKIHHHHHHMTYYESGLLRARWASWQDARAGRTAQANARWGWIKAPGERGPILWMQSFSDADQQRLGIELAKAMAEKRRDLRMVMTFETEYPALLEQHTEGAERLGYGFGPCDHPQAVGRMLERLTPLRYLALGRAPRPRLAAALGRRKIPAVLMAADPGLQIPAPLEAVYPRDARQAGAWAGRGVTEAVQEPVDFATLFTIAQVDPNFRAMISGTDEGLLWWAQGLSAAQWAGWRRAWAASPLSRHGLLFLGGTGAPTDLPRLSAWQRAPLPAGAVVVADDDRWYPALSAGAQAVHLQKASPMLQWQVYAGSRPISVSPGVTLNAAEPLDADTILTLEEPAQILDHWQALRGDAMAARQRGDATRRIFWQERRHAGERLPEFLQRVFDW”, the “soluble on expression in E. coli” value is “not soluble”.

With “MGSDKIHHHHHHMIYLEQFTFPDGDRESIFFQDKVKRTCYDSYYPFQVLPGRGLERLDFDLITILYGGNGSGKSTLLNIIAEKTEIPRDAIYNKSNFFPDYVAMCEMQLKVFLPEHSRIITSDDVFDYMLNIRSLNEGIDRKREQLFDDYLEAKYSRFQLKSLADYEELKRVNHARFNSQSRFVRNELMDNAREYSNGENAFRYFTEKIDEKGLYLLDEPENSLSPKRQLELVQFIEDSARFWQCQFIIATHSPFLLALRGAKIYNLDETPVAVKRWTELENVRIYYDFFKKREREF”, the “soluble on expression in E. coli” value is “not soluble”.

Consider “AHDNVVIFGDSMVADPLVSEVITGRLSSQPHCPHSPTSYAEIAAKRLGLESRNFSCAGAQVHIGGPFLKTSFIAQIDTAIAAGALDTHTRRVWITQGFNDAWSGHPAAQVVATMSEVIGRIRAHAPNARIQIVGYPQITHQGQLCLVR”, for which the “soluble on expression in E. coli” value is recorded as “not soluble”.

As to “EVQLVESGGGLVKPGGSLKLSCAASGFAFSSYDMSWVRQTPEKRLEWVAYISSGGGSTYYPDTVKGRFTISRDNAKNTLYLQMSSLKSEDTAMYYCARPDYRSYAMDYWGQGTSVTVSSAKTTAPSVYPLAPVCGDTTGSSVTLGCLVKGYFPEPVTLTWNSGSLSSGVHTFPAVLQSDLYTLSSSVTVTSSTWPSQSITCNVAHPASSTKVDKKIEPRGP”, the “soluble on expression in E. coli” value is “soluble”.

Turning to “MAYTEEQIENIKTRILTALEEVIDPELGIDIVNLGLIYEIRFDGDTGQTEIDMTLTTMGCPLADLLTDQIYDAMIEVPEVTDTEVKLVWYPAWTVEKMSRYARIALGIK”, the “soluble on expression in E. coli” value is on record as “not soluble”.
